This is an account of results in patent publication US20210032299A1 (Eli Lilly, published 2021).

Residue numbers refer to the chain shown, from its start. Starred links: 1 amine or outer side, 2 acyl side, 3 side chain; linkers in the order of their positions; H or OH if unused. Non-standard residues stand in square brackets, D forms with d. Groups on a side chain read outwards from the residue. No end group written: not given here. *: point of attachment. C20 diacid = O=C(O)CCCCCCCCCCCCCCCCCCC(=O)*; γGlu = O=C(O)[C@H](CCC(=O)[*:2])N[*:1]; αMeF = C[C@](N)(Cc1ccccc1)C(=O)O; 4Pal = N[C@@H](Cc1ccncc1)C(=O)O; αMeL = CC(C)C[C@](C)(N)C(=O)O; AEEA = NCCOCCOCC(=O)O; Aib = CC(C)(N)C(=O)O

T1: human glucose-dependent insulinotropic polypeptide (GIP) receptor (human, UniProt P48546 22-466)
T1 construct: whole, on cells; Assayed as crude membranes of stably transfected CHO cells; also called hGIPR; human GIP receptor
T1 sequence (looked up): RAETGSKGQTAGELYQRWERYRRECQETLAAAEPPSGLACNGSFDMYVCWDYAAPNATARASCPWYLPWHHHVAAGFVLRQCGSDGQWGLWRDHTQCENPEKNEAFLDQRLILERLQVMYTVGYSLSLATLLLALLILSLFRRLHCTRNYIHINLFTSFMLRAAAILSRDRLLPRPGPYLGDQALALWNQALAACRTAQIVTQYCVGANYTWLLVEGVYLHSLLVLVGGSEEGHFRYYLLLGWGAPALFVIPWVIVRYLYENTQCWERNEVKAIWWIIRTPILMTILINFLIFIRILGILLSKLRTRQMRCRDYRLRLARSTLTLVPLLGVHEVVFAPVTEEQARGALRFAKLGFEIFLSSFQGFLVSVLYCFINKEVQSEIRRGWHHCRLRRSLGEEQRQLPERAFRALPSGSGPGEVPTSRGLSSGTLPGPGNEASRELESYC

B1: Example 48 (peptide)
peptide: Y[Aib]EGTFISDYSI[αMeL]LDKK([AEEA-AEEA-γGlu-C20 diacid])HQ[Aib]DFVE[4Pal]LLAGGPSSGAPPPS-NH2
modifications: N-terminus assumed
SMILES: CC[C@H](C)[C@H](NC(=O)[C@H](Cc1ccccc1)NC(=O)[C@@H](NC(=O)CNC(=O)[C@H](CCC(=O)O)NC(=O)C(C)(C)NC(=O)[C@@H](N)Cc1ccc(O)cc1)[C@@H](C)O)C(=O)N[C@@H](CO)C(=O)N[C@@H](CC(=O)O)C(=O)N[C@@H](Cc1ccc(O)cc1)C(=O)N[C@@H](CO)C(=O)N[C@H](C(=O)N[C@@](C)(CC(C)C)C(=O)N[C@@H](CC(C)C)C(=O)N[C@@H](CC(=O)O)C(=O)N[C@@H](CCCCN)C(=O)N[C@@H](CCCCNC(=O)COCCOCCNC(=O)COCCOCCNC(=O)CC[C@H](NC(=O)CCCCCCCCCCCCCCCCCCC(=O)O)C(=O)O)C(=O)N[C@@H](Cc1c[nH]cn1)C(=O)N[C@@H](CCC(N)=O)C(=O)NC(C)(C)C(=O)N[C@@H](CC(=O)O)C(=O)N[C@@H](Cc1ccccc1)C(=O)N[C@H](C(=O)N[C@@H](CCC(=O)O)C(=O)N[C@@H](Cc1ccncc1)C(=O)N[C@@H](CC(C)C)C(=O)N[C@@H](CC(C)C)C(=O)N[C@@H](C)C(=O)NCC(=O)NCC(=O)N1CCC[C@H]1C(=O)N[C@@H](CO)C(=O)N[C@@H](CO)C(=O)NCC(=O)N[C@@H](C)C(=O)N1CCC[C@H]1C(=O)N1CCC[C@H]1C(=O)N1CCC[C@H]1C(=O)N[C@@H](CO)C(N)=O)C(C)C)[C@@H](C)CC
B2: Example 50 (peptide)
peptide: Y[Aib]EGT[αMeF]ISDYSI[αMeL]LDKK([AEEA-AEEA-γGlu-C20 diacid])HQ[Aib]DFVE[4Pal]LLAGGPSSGAPPPS-NH2
modifications: N-terminus assumed
SMILES: CC[C@H](C)[C@H](NC(=O)[C@H](CO)NC(=O)[C@H](Cc1ccc(O)cc1)NC(=O)[C@H](CC(=O)O)NC(=O)[C@H](CO)NC(=O)[C@@H](NC(=O)[C@](C)(Cc1ccccc1)NC(=O)[C@@H](NC(=O)CNC(=O)[C@H](CCC(=O)O)NC(=O)C(C)(C)NC(=O)[C@@H](N)Cc1ccc(O)cc1)[C@@H](C)O)[C@@H](C)CC)C(=O)N[C@@](C)(CC(C)C)C(=O)N[C@@H](CC(C)C)C(=O)N[C@@H](CC(=O)O)C(=O)N[C@@H](CCCCN)C(=O)N[C@@H](CCCCNC(=O)COCCOCCNC(=O)COCCOCCNC(=O)CC[C@H](NC(=O)CCCCCCCCCCCCCCCCCCC(=O)O)C(=O)O)C(=O)N[C@@H](Cc1c[nH]cn1)C(=O)N[C@@H](CCC(N)=O)C(=O)NC(C)(C)C(=O)N[C@@H](CC(=O)O)C(=O)N[C@@H](Cc1ccccc1)C(=O)N[C@H](C(=O)N[C@@H](CCC(=O)O)C(=O)N[C@@H](Cc1ccncc1)C(=O)N[C@@H](CC(C)C)C(=O)N[C@@H](CC(C)C)C(=O)N[C@@H](C)C(=O)NCC(=O)NCC(=O)N1CCC[C@H]1C(=O)N[C@@H](CO)C(=O)N[C@@H](CO)C(=O)NCC(=O)N[C@@H](C)C(=O)N1CCC[C@H]1C(=O)N1CCC[C@H]1C(=O)N1CCC[C@H]1C(=O)N[C@@H](CO)C(N)=O)C(C)C
B3: Example 61 (peptide)
peptide: Y[Aib]EGT[αMeF]ISDYSI[αMeL]LDKK([AEEA-AEEA-γGlu-C20 diacid])HQ[Aib]EFVE[4Pal]LLATGPSSGAPPPS-NH2
modifications: N-terminus assumed
SMILES: CC[C@H](C)[C@H](NC(=O)[C@H](CO)NC(=O)[C@H](Cc1ccc(O)cc1)NC(=O)[C@H](CC(=O)O)NC(=O)[C@H](CO)NC(=O)[C@@H](NC(=O)[C@](C)(Cc1ccccc1)NC(=O)[C@@H](NC(=O)CNC(=O)[C@H](CCC(=O)O)NC(=O)C(C)(C)NC(=O)[C@@H](N)Cc1ccc(O)cc1)[C@@H](C)O)[C@@H](C)CC)C(=O)N[C@@](C)(CC(C)C)C(=O)N[C@@H](CC(C)C)C(=O)N[C@@H](CC(=O)O)C(=O)N[C@@H](CCCCN)C(=O)N[C@@H](CCCCNC(=O)COCCOCCNC(=O)COCCOCCNC(=O)CC[C@H](NC(=O)CCCCCCCCCCCCCCCCCCC(=O)O)C(=O)O)C(=O)N[C@@H](Cc1c[nH]cn1)C(=O)N[C@@H](CCC(N)=O)C(=O)NC(C)(C)C(=O)N[C@@H](CCC(=O)O)C(=O)N[C@@H](Cc1ccccc1)C(=O)N[C@H](C(=O)N[C@@H](CCC(=O)O)C(=O)N[C@@H](Cc1ccncc1)C(=O)N[C@@H](CC(C)C)C(=O)N[C@@H](CC(C)C)C(=O)N[C@@H](C)C(=O)N[C@H](C(=O)NCC(=O)N1CCC[C@H]1C(=O)N[C@@H](CO)C(=O)N[C@@H](CO)C(=O)NCC(=O)N[C@@H](C)C(=O)N1CCC[C@H]1C(=O)N1CCC[C@H]1C(=O)N1CCC[C@H]1C(=O)N[C@@H](CO)C(N)=O)[C@@H](C)O)C(C)C
B4: Example 62 (peptide)
peptide: Y[Aib]EGT[αMeF]ISDYSI[αMeL]LDKK([AEEA-AEEA-γGlu-C20 diacid])HQ[Aib]EFVE[4Pal]LLAAGPSSGAPPPS-NH2
modifications: N-terminus assumed
SMILES: CC[C@H](C)[C@H](NC(=O)[C@H](CO)NC(=O)[C@H](Cc1ccc(O)cc1)NC(=O)[C@H](CC(=O)O)NC(=O)[C@H](CO)NC(=O)[C@@H](NC(=O)[C@](C)(Cc1ccccc1)NC(=O)[C@@H](NC(=O)CNC(=O)[C@H](CCC(=O)O)NC(=O)C(C)(C)NC(=O)[C@@H](N)Cc1ccc(O)cc1)[C@@H](C)O)[C@@H](C)CC)C(=O)N[C@@](C)(CC(C)C)C(=O)N[C@@H](CC(C)C)C(=O)N[C@@H](CC(=O)O)C(=O)N[C@@H](CCCCN)C(=O)N[C@@H](CCCCNC(=O)COCCOCCNC(=O)COCCOCCNC(=O)CC[C@H](NC(=O)CCCCCCCCCCCCCCCCCCC(=O)O)C(=O)O)C(=O)N[C@@H](Cc1c[nH]cn1)C(=O)N[C@@H](CCC(N)=O)C(=O)NC(C)(C)C(=O)N[C@@H](CCC(=O)O)C(=O)N[C@@H](Cc1ccccc1)C(=O)N[C@H](C(=O)N[C@@H](CCC(=O)O)C(=O)N[C@@H](Cc1ccncc1)C(=O)N[C@@H](CC(C)C)C(=O)N[C@@H](CC(C)C)C(=O)N[C@@H](C)C(=O)N[C@@H](C)C(=O)NCC(=O)N1CCC[C@H]1C(=O)N[C@@H](CO)C(=O)N[C@@H](CO)C(=O)NCC(=O)N[C@@H](C)C(=O)N1CCC[C@H]1C(=O)N1CCC[C@H]1C(=O)N1CCC[C@H]1C(=O)N[C@@H](CO)C(N)=O)C(C)C
B5: Example 88 (peptide)
peptide: YXEGTXISDYSIXLDKKHQXDFVEXLLEAGPSSGAPPPS
modifications: Aib2; Iva6; αMeL13; K17((2-[2-(2-Amino-ethoxy)-ethoxy]-acetyl)2-(γ-Glu)-CO-(CH2)18-CO2H); Aib20; 4-Pal25; C-terminal amide
B6: Example 74 (peptide)
peptide: B5 peptide with A29G
modifications: Aib2; Iva6; αMeL13; K17((2-[2-(2-Amino-ethoxy)-ethoxy]-acetyl)2-(γ-Glu)-CO-(CH2)18-CO2H); Aib20; 4-Pal25; C-terminal amide
B7: Example 60 (peptide)
peptide: Y[Aib]EGT[αMeF]ISDYSI[αMeL]LDKK([AEEA-AEEA-γGlu-C20 diacid])HQ[Aib]EFVE[4Pal]LLAQGPSSGAPPPS-NH2
modifications: N-terminus assumed
SMILES: CC[C@H](C)[C@H](NC(=O)[C@H](CO)NC(=O)[C@H](Cc1ccc(O)cc1)NC(=O)[C@H](CC(=O)O)NC(=O)[C@H](CO)NC(=O)[C@@H](NC(=O)[C@](C)(Cc1ccccc1)NC(=O)[C@@H](NC(=O)CNC(=O)[C@H](CCC(=O)O)NC(=O)C(C)(C)NC(=O)[C@@H](N)Cc1ccc(O)cc1)[C@@H](C)O)[C@@H](C)CC)C(=O)N[C@@](C)(CC(C)C)C(=O)N[C@@H](CC(C)C)C(=O)N[C@@H](CC(=O)O)C(=O)N[C@@H](CCCCN)C(=O)N[C@@H](CCCCNC(=O)COCCOCCNC(=O)COCCOCCNC(=O)CC[C@H](NC(=O)CCCCCCCCCCCCCCCCCCC(=O)O)C(=O)O)C(=O)N[C@@H](Cc1c[nH]cn1)C(=O)N[C@@H](CCC(N)=O)C(=O)NC(C)(C)C(=O)N[C@@H](CCC(=O)O)C(=O)N[C@@H](Cc1ccccc1)C(=O)N[C@H](C(=O)N[C@@H](CCC(=O)O)C(=O)N[C@@H](Cc1ccncc1)C(=O)N[C@@H](CC(C)C)C(=O)N[C@@H](CC(C)C)C(=O)N[C@@H](C)C(=O)N[C@@H](CCC(N)=O)C(=O)NCC(=O)N1CCC[C@H]1C(=O)N[C@@H](CO)C(=O)N[C@@H](CO)C(=O)NCC(=O)N[C@@H](C)C(=O)N1CCC[C@H]1C(=O)N1CCC[C@H]1C(=O)N1CCC[C@H]1C(=O)N[C@@H](CO)C(N)=O)C(C)C

One test addresses T2, human GLP-1 receptor (human, UniProt P43220 24-463).
T2 construct: whole, on cells; Assayed as crude membranes of stably transfected HEK293 cells; also called hGLP1R; hGLP-1R
Put plainly: SPA, displacement of [125I]-GLP-1 from hGLP-1R membranes, 0.1% bacitracin. The procedure, abridged:
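Binding buffer: 25 mM HEPES pH 7.4, 2.5 mM CaCl₂, 1 mM MgCl₂, 0.1% bacitracin, 0.003% Tween-20, protease inhibitors without EDTA. Four-parameter nonlinear regression; Kᵢ given as geometric mean ± SEM, n = independent replicates run on different days.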
(In general: In a radioligand displacement assay an active substance lowers the binding of a labelled ligand.)
A word on the Ki: it is the equilibrium dissociation constant of an inhibitor or competing ligand from its target. A high value points to a looser hold on the target. B1 gave an inhibitory constant (Ki) of 211 nM.

For the molecule B2, the affinity, expressed as Ki, was 34.9 nM.

With B3, the affinity corresponds to a Ki of 135 nM.

B4 had a Ki of 47.6 nM.

B5 registered a Ki of 261 nM.

In turn, B6 yielded an inhibition constant Ki of 395 nM.

In turn, B7 returned a Ki of 51.4 nM.

For another test, the target named is T1, human glucose-dependent insulinotropic …. Put plainly: SPA, displacement of [125I]-GIP from hGIPR membranes, 0.1% bacitracin.
In turn, B1 registered a Ki of 0.0498 nM.

For B2, the Ki was 0.0501 nM.

As to B3, the Ki worked out at 0.0665 nM.

Regarding B4, the inhibition constant Ki stood at 0.0414 nM.

With B5, the inhibition constant (Ki) was found to be 0.083 nM.

Take B6: the inhibition constant Ki is 0.0287 nM.

With B7, affinity was put at a Ki of 0.039 nM.

The target in the next test is T3, human glucagon receptor (human, UniProt P47871 26-477).
T3 construct: whole, on cells; Assayed as crude membranes of stably transfected HEK293 cells; also called hGcgR; GcgR
T3 sequence (P47871 26-477): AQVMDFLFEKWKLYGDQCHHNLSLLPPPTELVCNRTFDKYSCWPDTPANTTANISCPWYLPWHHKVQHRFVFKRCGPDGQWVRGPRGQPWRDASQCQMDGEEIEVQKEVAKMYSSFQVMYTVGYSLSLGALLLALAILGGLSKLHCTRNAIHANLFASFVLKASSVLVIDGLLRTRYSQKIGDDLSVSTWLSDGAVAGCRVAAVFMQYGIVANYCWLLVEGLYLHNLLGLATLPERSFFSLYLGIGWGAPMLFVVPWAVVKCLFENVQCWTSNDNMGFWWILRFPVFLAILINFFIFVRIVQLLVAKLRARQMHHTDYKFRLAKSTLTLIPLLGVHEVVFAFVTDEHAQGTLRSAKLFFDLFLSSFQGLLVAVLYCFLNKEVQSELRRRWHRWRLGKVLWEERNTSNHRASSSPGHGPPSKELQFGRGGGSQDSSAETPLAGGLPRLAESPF
Briefly: SPA, displacement of [125I]-Gcg from hGcgR membranes, 0.1% bacitracin. The procedure, abridged:
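Binding buffer: 25 mM HEPES pH 7.4, 2.5 mM CaCl₂, 1 mM MgCl₂, 0.003% Tween-20, protease inhibitors without EDTA. Counted by scintillation after 12 h incubation/settling at room temperature. Four-parameter nonlinear fit; Kᵢ given as geometric mean ± SEM of independent replicates run on different days.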
In turn, B1 came in with a Ki of 267 nM.

Consider B2, for which the inhibition constant (Ki) came out at 23.4 nM.

Molecule B3 displayed a Ki of 80.4 nM.

Consider B4, for which the Ki turned out to be 31.3 nM.

As for B5, the inhibition constant Ki stood at 788 nM.

Molecule B6 registered a Ki of 511 nM.

Molecule B7 came in with an inhibition constant (Ki) of 26.2 nM.
